# Assay results reported in paper PMC4787775, “Molecular basis for the substrate specificity and catalytic mechanism of thymine-7-hydroxylase in fungi” (Nucleic Acids Research, 2015).
# Residue numbers refer to the chain shown, from its start. Names may count otherwise.
# B1: NcT7H (thymine-7-hydroxylase) (Neurospora crassa OR74A; R286A) (protein)
# chain: MEKAAVNEDGLVIPLIDFSKFLEGDETLKLETAKAILHGFQTAGFIYLKNIPIQPDFREHVFNTSAKFFKLPKEKKLEVGWTTPEANRGYSAPGREKVTQLTDPAEIEKIRSAAPDIKESYEIGREDEPGHPNPWPAEQDDLVGFKSTMNNFFDQCKALHIEVMRAIAVGMGIDANYFDSFVDVGDNILRLLHYPAVKSEVFKINPGQVRAGEHTDYGSITLLFQDSRGGLQVKSPNGQFIDATPIENTVVVNAGDLLARWSNDTIKSTVHRVVEPPKQEDVHPPAYSIAYFCNPNHKSYIEAIPGTYAAESERKYEGINSGKYLVQRLAATY
# notes: full length (residues 1-333), C-terminal His6-tag, pET-28a, expressed in E. coli BL21(DE3); Ni-NTA and gel filtration, tag removal not mentioned
# B2: NcT7H (thymine-7-hydroxylase) (Neurospora crassa OR74A; R190K) (protein)
# chain: B1 chain with R190K, A286R
# notes: as for B1
# B3: NcT7H (thymine-7-hydroxylase) (Neurospora crassa OR74A; N87A) (protein)
# chain: B1 chain with N87A, A286R
# notes: as for B1
# B4: NcT7H (thymine-7-hydroxylase) (Neurospora crassa OR74A) (protein)
# chain: B1 chain with A286R
# notes: as for B1
# B5: NcT7H (thymine-7-hydroxylase) (Neurospora crassa OR74A; Y217F) (protein)
# chain: B1 chain with Y217F, A286R
# notes: as for B1
# B6: NcT7H (thymine-7-hydroxylase) (Neurospora crassa OR74A; Y217A) (protein)
# chain: B1 chain with Y217A, A286R
# notes: as for B1
# Biological target: T1, NcT7H (thymine-7-hydroxylase) (Neurospora crassa, UniProt Q7RYZ9)
# T1 construct: gene NCU06416; full length (residues 1-333), C-terminal His6-tag, pET-28a, expressed in E. coli BL21(DE3); Ni-NTA and gel filtration, tag removal not mentioned
# T1 sequence (Q7RYZ9 entry or part of it): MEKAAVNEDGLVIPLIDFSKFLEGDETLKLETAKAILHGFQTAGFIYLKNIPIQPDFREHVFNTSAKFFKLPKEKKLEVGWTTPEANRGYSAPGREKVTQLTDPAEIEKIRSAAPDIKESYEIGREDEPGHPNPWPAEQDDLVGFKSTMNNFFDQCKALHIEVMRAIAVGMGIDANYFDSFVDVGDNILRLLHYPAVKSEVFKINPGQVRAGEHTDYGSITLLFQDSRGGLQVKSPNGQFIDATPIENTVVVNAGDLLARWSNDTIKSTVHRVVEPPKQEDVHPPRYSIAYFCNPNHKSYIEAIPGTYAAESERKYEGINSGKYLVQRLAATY
# Test: isothermal titration calorimetry
# Type: binding
# Conditions: not given
# Excerpt: isothermal titration calorimetry on NcT7H (thymine-7-hydroxylase)
row,Kd [µM],Molecule
1,108 ± 13,O=Cc1c[nH]c(=O)[nH]c1=O [5fU]
2,30.5 ± 5.59,O=c1[nH]cc(CO)c(=O)[nH]1 [5hmU]
3,5.35 ± 1.26,O=C(O)CNC(=O)C(=O)O [NOG]
4,34.4 ± 6.63,O=C(O)CCC(=O)C(=O)O [α-KG]
5,32 ± 5.24,Cc1c[nH]c(=O)[nH]c1=O [T]

# Substrate: O=c1[nH]cc(CO)c(=O)[nH]1
# Test: purified protein
# Conditions: 1 mM α-KG, 0.2 mM (NH4)2Fe(SO4)2, 0.2 mM ascorbic acid, 100 mM Hepes pH 7.5, 25 °C
Molecule,Km [µM],kcat [s⁻¹],kcat/Km [M⁻¹ s⁻¹]
B1,950 ± 114,0.141,150
B2,1016 ± 200,0.0353,33.3
B3,1065 ± 156,0.0962,83.3
B4,178 ± 16.4,0.325,1830
B5,247 ± 35.2,0.553,2230

# Substrate: Cc1c[nH]c(=O)[nH]c1=O
# Test: purified protein
# Type: biochemical, Neurospora crassa
# Conditions: 1 mM α-KG, 0.2 mM (NH4)2Fe(SO4)2, 0.2 mM ascorbic acid, 100 mM Hepes pH 7.5, 25 °C
Molecule,Km [µM],kcat [s⁻¹],kcat/Km [M⁻¹ s⁻¹]
B1,649 ± 74.1,0.405 ± 0.0215,617
B2,542 ± 64.7,0.055 ± 0.003,100
B3,638 ± 128,0.23 ± 0.022,367
B4,141 ± 13.4,0.417 ± 0.0123,2950
B5,128 ± 18.5,0.542 ± 0.0228,4230
B6,1500 ± 332,0.257 ± 0.0355,167

# Substrate: O=Cc1c[nH]c(=O)[nH]c1=O
# Test: purified protein
# Type: biochemical, Neurospora crassa
# Conditions: 1 mM α-KG, 0.2 mM (NH4)2Fe(SO4)2, 0.2 mM ascorbic acid, 100 mM Hepes pH 7.5, 25 °C
Molecule,Km [µM],kcat [s⁻¹],kcat/Km [M⁻¹ s⁻¹]
B4,253 ± 32.2,0.765 ± 0.0357,3020
B5,718 ± 213,0.237 ± 0.0352,333
